{"source": "paper PMC9371363", "origin": "cited, not measured here", "key": {"[1]": {"biological_target": "IL-13Rα2 (Homo sapiens) (UniProt Q14627)", "sequence (Q14627 27-343)": "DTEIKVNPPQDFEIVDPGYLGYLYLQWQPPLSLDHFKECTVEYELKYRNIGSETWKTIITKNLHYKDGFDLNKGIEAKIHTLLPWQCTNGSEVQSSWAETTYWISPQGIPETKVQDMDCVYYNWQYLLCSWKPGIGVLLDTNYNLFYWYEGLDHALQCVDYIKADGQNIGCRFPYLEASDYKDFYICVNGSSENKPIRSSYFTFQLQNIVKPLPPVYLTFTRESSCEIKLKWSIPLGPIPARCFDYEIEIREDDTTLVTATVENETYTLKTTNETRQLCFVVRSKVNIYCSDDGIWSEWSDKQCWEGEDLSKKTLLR"}, "[2]": {"biological_target": "IL-4Rα (Homo sapiens) (UniProt P24394)", "sequence (P24394 26-232)": "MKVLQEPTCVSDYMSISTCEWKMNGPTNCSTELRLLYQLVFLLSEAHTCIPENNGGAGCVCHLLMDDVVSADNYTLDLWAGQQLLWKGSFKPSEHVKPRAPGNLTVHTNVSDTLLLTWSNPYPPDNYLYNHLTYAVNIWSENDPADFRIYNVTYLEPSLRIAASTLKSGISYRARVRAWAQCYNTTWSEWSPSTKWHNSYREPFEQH"}}}
{"substance": "IL-13 (from UniProt P35225)", "values": [{"measurement": "Kd", "setting": "[1]", "result": "< 0.001", "unit": "pM"}]}
{"substance": "IL-4 (from UniProt P05112)", "values": [{"measurement": "Kd", "setting": "[2]", "result": 100, "unit": "pM"}]}
